Here are results for three molecules from article PMC5397160, “Insights into the RecQ helicase mechanism revealed by the structure of the helicase domain of human RECQL5”.

One series has as its target RECQL5 11-526 Y419A (human, UniProt O94762 11-526, Y419A). Description: fluorescence polarization; FP: 10 mM HEPES pH 7.5, 150 mM NaCl, 25 C, 10 nM FITC probe; no nucleotide or Mg stated. The conditions noted are these: protein: recombinant; tags: none (His tag cleaved with TEV); label: 5' fluorescein (FITC) on RQ-1; fork 1:2, 31 bp, RQ-1 5' arm 32 nt, RQ-3 3' arm 30 nt.

The target of a further series is RECQL5 11-526 F420A (human, UniProt O94762 11-526, F420A). The description is as above. The settings on record: protein: recombinant; tags: none (His tag cleaved with TEV); label: 5' fluorescein (FITC) on RQ-1; fork 1:2, 31 bp, RQ-1 5' arm 32 nt, RQ-3 3' arm 30 nt.
Sequence of RECQL5 11-526 F420A (O94762 11-526 F420A): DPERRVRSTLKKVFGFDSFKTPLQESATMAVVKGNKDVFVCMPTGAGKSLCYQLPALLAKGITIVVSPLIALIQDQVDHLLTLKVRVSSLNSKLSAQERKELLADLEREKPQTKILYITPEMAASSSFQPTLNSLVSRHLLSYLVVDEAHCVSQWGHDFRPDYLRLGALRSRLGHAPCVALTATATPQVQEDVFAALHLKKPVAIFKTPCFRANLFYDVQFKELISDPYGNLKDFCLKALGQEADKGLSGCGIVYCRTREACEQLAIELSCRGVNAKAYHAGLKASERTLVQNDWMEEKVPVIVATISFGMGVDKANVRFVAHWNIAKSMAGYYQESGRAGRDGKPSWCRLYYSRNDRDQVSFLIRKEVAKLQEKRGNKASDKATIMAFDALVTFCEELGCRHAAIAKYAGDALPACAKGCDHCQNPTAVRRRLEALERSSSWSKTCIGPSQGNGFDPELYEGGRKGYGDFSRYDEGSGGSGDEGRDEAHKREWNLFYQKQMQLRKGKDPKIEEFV
A further series has as its target RECQL5 11-609 (human, UniProt O94762 11-609). The series is described as above. The conditions noted are these: protein: recombinant, tags: none (His tag cleaved with TEV).
In another series the target is RECQL5 11-526 D422A (human, UniProt O94762 11-526, D422A). The series is described as above. The conditions noted are these: protein: recombinant; tags: none (His tag cleaved with TEV); label: 5' fluorescein (FITC) on RQ-1; fork 1:2, 31 bp, RQ-1 5' arm 32 nt, RQ-3 3' arm 30 nt.
Sequence of RECQL5 11-526 D422A (O94762 11-526 D422A): as the sequence (O94762 11-526 F420A) above, with A410F, D412A counted along it
The target in the next series is RECQL5 11-526 R352G (human, UniProt O94762 11-526, R352G). The description is as above. The conditions noted are these: protein: recombinant; tags: none (His tag cleaved with TEV); label: 5' fluorescein (FITC) on RQ-1; fork 1:2, 31 bp, RQ-1 5' arm 32 nt, RQ-3 3' arm 30 nt.
Sequence of RECQL5 11-526 R352G (O94762 11-526 R352G): as the sequence (O94762 11-526 F420A) above, with R342G, A410F counted along it
Another series addresses RECQL5 11-526 (human, UniProt O94762 11-526). Described as above. The settings on record: protein: recombinant; tags: none (His tag cleaved with TEV); label: 5' fluorescein (FITC) on RQ-1; fork 1:2, 31 bp, RQ-1 5' arm 32 nt, RQ-3 3' arm 30 nt.
For the next series, the target named is RECQL5 11-526 Q345A (human, UniProt O94762 11-526, Q345A). The series is described as above. The settings on record: protein: recombinant; tags: none (His tag cleaved with TEV); label: 5' fluorescein (FITC) on RQ-1; fork 1:2, 31 bp, RQ-1 5' arm 32 nt, RQ-3 3' arm 30 nt.
Sequence of RECQL5 11-526 Q345A (O94762 11-526 Q345A): as the sequence (O94762 11-526 F420A) above, with Q335A, A410F counted along it
For another series, the target named is RECQL5 11-526 W165A (human, UniProt O94762 11-526, W165A). Described as above. The settings on record: protein: recombinant; tags: none (His tag cleaved with TEV); label: 5' fluorescein (FITC) on RQ-1; fork 1:2, 31 bp, RQ-1 5' arm 32 nt, RQ-3 3' arm 30 nt.
Sequence of RECQL5 11-526 W165A (O94762 11-526 W165A): as the sequence (O94762 11-526 F420A) above, with W155A, A410F counted along it
The target of a further series is RECQL5 11-526 D168A (human, UniProt O94762 11-526, D168A). Described as above. The conditions noted are these: protein: recombinant; tags: none (His tag cleaved with TEV); label: 5' fluorescein (FITC) on RQ-1; fork 1:2, 31 bp, RQ-1 5' arm 32 nt, RQ-3 3' arm 30 nt.
Sequence of RECQL5 11-526 D168A (O94762 11-526 D168A): as the sequence (O94762 11-526 F420A) above, with D158A, A410F counted along it
For another series, the target named is RECQL5 11-526 H167A (human, UniProt O94762 11-526, H167A). Described as above. The conditions noted are these: protein: recombinant; tags: none (His tag cleaved with TEV); label: 5' fluorescein (FITC) on RQ-1; fork 1:2, 31 bp, RQ-1 5' arm 32 nt, RQ-3 3' arm 30 nt.
Sequence of RECQL5 11-526 H167A (O94762 11-526 H167A): as the sequence (O94762 11-526 F420A) above, with H157A, A410F counted along it
The next series concerns the target RECQL5 11-453 (human, UniProt O94762 11-453). The series is described as above. The settings on record: protein: recombinant; tags: none (His tag cleaved with TEV); label: 5' fluorescein (FITC) on RQ-1; fork 1:2, 31 bp, RQ-1 5' arm 32 nt, RQ-3 3' arm 30 nt.
The target of another series is RECQL5 11-438 (human, UniProt O94762 11-438). Description: fluorescence polarization; shared Bmax fit; FP: 10 mM HEPES pH 7.5, 150 mM NaCl, 25 C, 10 nM FITC probe; no nucleotide or Mg stated. The settings on record: protein: recombinant; tags: none (His tag cleaved with TEV); label: 5' fluorescein (FITC) on RQ-1; fork 1:2, 31 bp, RQ-1 5' arm 32 nt, RQ-3 3' arm 30 nt. In general terms: Polarisation of emitted light reports the rotation of a fluorescent probe.
Sequence of RECQL5 11-438 (O94762 11-438): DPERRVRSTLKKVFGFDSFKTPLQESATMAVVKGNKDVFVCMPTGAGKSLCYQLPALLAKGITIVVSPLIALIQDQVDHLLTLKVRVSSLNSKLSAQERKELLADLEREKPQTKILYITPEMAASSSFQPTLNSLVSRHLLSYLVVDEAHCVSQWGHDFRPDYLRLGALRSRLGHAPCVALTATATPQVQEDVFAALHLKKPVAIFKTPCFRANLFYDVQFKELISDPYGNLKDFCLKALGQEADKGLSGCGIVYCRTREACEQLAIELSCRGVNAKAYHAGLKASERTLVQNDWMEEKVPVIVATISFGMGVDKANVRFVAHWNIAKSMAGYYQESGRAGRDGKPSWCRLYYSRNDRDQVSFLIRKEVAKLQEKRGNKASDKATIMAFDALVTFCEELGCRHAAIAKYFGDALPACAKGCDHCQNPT

A further series has as its target RECQL5 11-526 R349A (human, UniProt O94762 11-526, R349A). The series is described as follows: fluorescence polarization; value marked * in table; FP: 10 mM HEPES pH 7.5, 150 mM NaCl, 25 C, 10 nM FITC probe; no nucleotide or Mg stated. The settings on record: protein: recombinant; tags: none (His tag cleaved with TEV); label: 5' fluorescein (FITC) on RQ-1; fork 1:2, 31 bp, RQ-1 5' arm 32 nt, RQ-3 3' arm 30 nt.

Sequence of RECQL5 11-609 (O94762 11-609): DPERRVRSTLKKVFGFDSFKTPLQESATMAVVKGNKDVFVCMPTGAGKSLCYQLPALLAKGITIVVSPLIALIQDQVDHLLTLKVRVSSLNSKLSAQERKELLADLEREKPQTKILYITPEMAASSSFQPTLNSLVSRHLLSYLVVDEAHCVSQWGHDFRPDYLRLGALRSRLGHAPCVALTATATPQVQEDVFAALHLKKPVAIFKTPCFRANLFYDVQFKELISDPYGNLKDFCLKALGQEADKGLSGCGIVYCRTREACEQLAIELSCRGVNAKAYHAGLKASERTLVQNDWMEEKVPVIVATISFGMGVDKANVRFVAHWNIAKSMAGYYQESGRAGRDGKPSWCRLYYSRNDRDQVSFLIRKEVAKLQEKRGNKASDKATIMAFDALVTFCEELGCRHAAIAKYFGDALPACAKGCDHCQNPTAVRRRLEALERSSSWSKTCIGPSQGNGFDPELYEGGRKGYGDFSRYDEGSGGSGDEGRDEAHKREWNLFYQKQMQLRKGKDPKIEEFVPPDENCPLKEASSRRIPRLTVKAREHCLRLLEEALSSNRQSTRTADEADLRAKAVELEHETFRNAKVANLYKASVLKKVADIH
Sequence of RECQL5 11-526 (O94762 11-526): as the sequence (O94762 11-526 F420A) above, with A410F counted along it
Sequence of RECQL5 11-453 (O94762 11-453): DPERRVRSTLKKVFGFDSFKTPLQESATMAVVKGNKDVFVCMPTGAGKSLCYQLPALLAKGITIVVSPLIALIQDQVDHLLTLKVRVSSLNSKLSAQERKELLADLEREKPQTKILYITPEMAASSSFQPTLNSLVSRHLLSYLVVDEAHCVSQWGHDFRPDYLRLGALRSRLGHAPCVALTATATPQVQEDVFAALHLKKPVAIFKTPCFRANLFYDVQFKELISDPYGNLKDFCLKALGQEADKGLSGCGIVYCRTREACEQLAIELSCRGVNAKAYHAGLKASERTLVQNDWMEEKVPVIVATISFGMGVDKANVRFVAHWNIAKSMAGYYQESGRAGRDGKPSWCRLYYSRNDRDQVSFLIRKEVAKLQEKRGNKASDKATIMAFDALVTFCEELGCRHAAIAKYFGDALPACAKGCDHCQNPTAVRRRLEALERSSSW
Sequence of RECQL5 11-526 R349A (O94762 11-526 R349A): as the sequence (O94762 11-526 F420A) above, with R339A, A410F counted along it
Sequence of RECQL5 11-526 Y419A (O94762 11-526 Y419A): as the sequence (O94762 11-526 F420A) above, with Y409A, A410F counted along it

B1: splayed duplex (RQ-1 + RQ-3) (mixed)
DNA 1: ATCGATAGTCGGATCCTCTAGACAGCTCCATGTAGCAAGGCACTGGTAGAATTCGGCAGCGTC
DNA 2: GACGCTGCCGAATTCTACCAGTGCCTTGCTAGGACATCTTTGCCCACCTGCAGGTTCACCC
The Kd is the constant that tells how readily two partners part at equilibrium. With B1, the equilibrium dissociation constant (Kd) with RECQL5 11-526 Y419A was determined as 39 ± 10 nM; in the series with RECQL5 11-526 F420A, 45 ± 3 nM; with RECQL5 11-609 (label: 5' fluorescein (FITC) on RQ-1, fork 1:2, 31 bp, RQ-1 5' arm 32 nt, RQ-3 3' arm 30 nt), 29 ± 4 nM; in the series with RECQL5 11-526 D422A, 38 ± 4 nM; in the series with RECQL5 11-526 R352G, 29 ± 2 nM; in the series with RECQL5 11-526, 51 ± 5 nM. The Kd with RECQL5 11-526 Q345A came to 85 ± 4 nM; with RECQL5 11-526 W165A, 169 ± 6 nM; with RECQL5 11-526 D168A, 25 ± 2 nM; with RECQL5 11-526 H167A, 108 ± 5 nM; with RECQL5 11-453, 49 ± 28 nM; with RECQL5 11-438, 164 ± 34 nM. In the series with RECQL5 11-526 R349A, the Kd was 295 ± 29 nM.

B2: single stranded (RQ-1) (ssDNA)
DNA: B1 DNA 1
On to B2, for which the binding result with RECQL5 11-609 (label: 5' fluorescein (FITC), single strand) is recorded as “binds”.

B3: double stranded (RQ-1 + RQ-2) (dsDNA)
DNA 1: B1 DNA 1
DNA 2: GACGCTGCCGAATTCTACCAGTGCCTTGCTACATGGAGCTGTCTAGAGGATCCGACTATCGAT
For the molecule B3, the binding result in the series with RECQL5 11-609 (label: 5' fluorescein (FITC) on RQ-1, blunt) is “binds”.
